In patent publication US20250042994A1 (HAINAN SIMCERE ZAIMING PHARMACEUTICAL, published 2025):

Assays:
human CD19 on Raji cells = target: T1, human CD19 on Raji cells (human, UniProt P15391 20-556); assay: FACS on Raji cells
T1 construct: whole, on cells
T1 sequence (looked up): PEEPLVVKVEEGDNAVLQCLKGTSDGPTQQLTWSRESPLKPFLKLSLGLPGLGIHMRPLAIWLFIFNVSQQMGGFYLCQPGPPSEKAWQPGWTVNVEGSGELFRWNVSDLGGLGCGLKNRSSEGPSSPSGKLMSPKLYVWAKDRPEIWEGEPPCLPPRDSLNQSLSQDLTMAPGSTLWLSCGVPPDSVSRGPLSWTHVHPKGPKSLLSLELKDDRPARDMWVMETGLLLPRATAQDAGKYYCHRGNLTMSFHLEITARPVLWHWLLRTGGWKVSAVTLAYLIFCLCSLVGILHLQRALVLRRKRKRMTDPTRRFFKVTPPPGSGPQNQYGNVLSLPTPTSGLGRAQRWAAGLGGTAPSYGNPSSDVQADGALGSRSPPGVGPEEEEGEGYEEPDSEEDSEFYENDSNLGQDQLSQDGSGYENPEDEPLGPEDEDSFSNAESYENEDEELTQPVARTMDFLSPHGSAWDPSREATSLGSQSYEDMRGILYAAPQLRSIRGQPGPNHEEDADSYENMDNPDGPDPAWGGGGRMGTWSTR

[1] = target: T2, monkey CD19 on HEK293T-monkey CD19 cells (monkey); assay: FACS on HEK293T-monkey CD19 cells
T2 construct: whole, on cells
Procedure, shortened: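 Antibody binding was read as MFI by flow cytometry and EC50 was taken from curve fitting. Before that, cells at 2×10⁶ cells/ml in PBS with 2% (w/w) BSA were exposed to samples for 2 h on ice and washed. Parental HEK293T cells were tested the same way.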

[2] = target: T3, human CD19 on CHO-K1-human CD19 cells (human, UniProt P15391 20-556); assay: FACS on CHO-K1-human CD19 cells
T3 construct: whole, on cells; also called CHO-K1-human CD19-2C8
T3 sequence (looked up): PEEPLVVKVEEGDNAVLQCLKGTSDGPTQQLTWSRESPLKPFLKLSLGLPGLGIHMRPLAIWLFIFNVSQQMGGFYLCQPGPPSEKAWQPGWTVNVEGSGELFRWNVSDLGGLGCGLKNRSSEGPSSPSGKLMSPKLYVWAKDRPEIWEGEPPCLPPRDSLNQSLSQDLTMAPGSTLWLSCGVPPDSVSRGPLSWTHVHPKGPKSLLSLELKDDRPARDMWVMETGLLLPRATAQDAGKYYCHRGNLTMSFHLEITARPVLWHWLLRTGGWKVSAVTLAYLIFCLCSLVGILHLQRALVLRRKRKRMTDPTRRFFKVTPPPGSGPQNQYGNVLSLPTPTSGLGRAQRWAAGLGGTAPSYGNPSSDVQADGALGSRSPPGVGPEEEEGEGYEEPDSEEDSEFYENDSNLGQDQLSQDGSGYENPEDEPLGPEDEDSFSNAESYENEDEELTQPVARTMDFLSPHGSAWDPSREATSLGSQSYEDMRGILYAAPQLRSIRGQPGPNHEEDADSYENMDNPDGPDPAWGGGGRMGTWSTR

[3] = target: T4, cynomolgus monkey CD19 on peripheral blood B cells (cynomolgus monkey (Macaca fascicularis), UniProt A0A2K5W8L9 20-557); assay: FACS, cynomolgus PBMC, CD20+ B cells
T4 construct: whole, on cells; also called cynomolgus monkey B cells
T4 sequence: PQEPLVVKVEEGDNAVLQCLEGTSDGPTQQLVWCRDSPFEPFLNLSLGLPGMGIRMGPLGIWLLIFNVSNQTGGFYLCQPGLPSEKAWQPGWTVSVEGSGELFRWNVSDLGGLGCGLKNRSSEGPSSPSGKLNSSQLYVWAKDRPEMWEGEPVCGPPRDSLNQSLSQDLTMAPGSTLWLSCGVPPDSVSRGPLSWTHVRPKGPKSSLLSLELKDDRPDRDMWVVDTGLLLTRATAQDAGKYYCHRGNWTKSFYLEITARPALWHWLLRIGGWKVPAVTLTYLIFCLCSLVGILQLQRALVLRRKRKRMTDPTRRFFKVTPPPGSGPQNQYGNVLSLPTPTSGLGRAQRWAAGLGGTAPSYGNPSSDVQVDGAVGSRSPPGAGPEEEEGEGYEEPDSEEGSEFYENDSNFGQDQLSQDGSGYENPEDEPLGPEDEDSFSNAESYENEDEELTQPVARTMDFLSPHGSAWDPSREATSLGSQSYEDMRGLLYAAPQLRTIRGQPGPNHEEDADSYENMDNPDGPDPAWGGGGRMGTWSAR

B1: F4.78.1 (antibody, human IgG1, V domains shown)
VH: QVQIQQSGAELARPGASVKLSCKASGYTFTNYWMQWIKQRPGQGLEWIGAIYPGDGDTRYTQKFKGKATLTADKSSSTAYMQLSSLASEDSAVYYCAREEVWSPYGMDYWGQGTSVTVSS
VL: QIVLTQSPAIMSASPGEKVTITCSASSSVSYMGWFQQKPGTSPKLWIYSTSNLASGVPARFSGSGSGTSYSLTISRMEAEDAATYYCQQRSIYPLTFGAGTKLELK
notes: human-murine chimeric antibody, human IgG1
- EC50 (human CD19 on Raji cells): 1.52 nM
- Maximum mean fluorescence intensity (human CD19 on Raji cells): 36900
- EC50 [1]: 0.73 nM
- Maximum mean fluorescence intensity [1]: 57000
- EC50 [2]: 0.51 nM
- Maximum mean fluorescence intensity [2]: 44300
- Proportion of chimeric antibody positive cells to B cells (%) at 1 nM [3]: 21%
- Proportion of chimeric antibody positive cells to B cells (%) at 10 nM [3]: 29%
- Proportion of chimeric antibody positive cells to B cells (%) at 100 nM [3]: 74%

B2: F4.48.12 (antibody, human IgG1, V domains shown)
VH: QMQLKESGPGLVAPSQSLSITCTVSGFSLTDYGVSWIRQPPGKGLEWLGVIWGSGSTFYNSALTSRLSISKDNSKSQVFLKMNSLQTADTAMYFCAKHHYYGGSFAMDYWGQGTSVTVSS
VL: DIQMTQASSSLSASLGDRVTISCKTSQDISNYLNWYQQKPDGTFKLLIHYTSRLHSGVPSRFSGSGSGSDYSLTISNLEREDIATYFCQQGNSLPYTFGGGTKLEMK
notes: as for B1
- EC50 (human CD19 on Raji cells): 0.55 nM
- Maximum mean fluorescence intensity (human CD19 on Raji cells): 29300
- EC50 [1]: 184 nM
- Maximum mean fluorescence intensity [1]: 14300
- EC50 [2]: 0.48 nM
- Maximum mean fluorescence intensity [2]: 52700
- Proportion of chimeric antibody positive cells to B cells (%) at 1 nM [3]: 1%
- Proportion of chimeric antibody positive cells to B cells (%) at 10 nM [3]: 8%
- Proportion of chimeric antibody positive cells to B cells (%) at 100 nM [3]: 22%

B3: F4.18.13 (antibody, human IgG1, V domains shown)
VH: QVQLQQSGPELVKPGASVKISCKASGYAFSSFWMNWVKQRPGEGLEWIGRIYPGDGDTNYNGKFKGKATLTADDSSSTAYMQLSSLTSVDSAVYFCAREVIAAVVTTDFDYWGQGTTLTVSS
VL: DIQMTQTTSSLSASLGDRVTISCRTSQDISNYLNWYLQKPDGTVKLLIYYTSGLHSGVPSRFSGSGSGTDYSLTISNLEPEDIATYFCQQGKTLPYTFGGGTKLEIK
notes: as for B1
- EC50 (human CD19 on Raji cells): 1.31 nM
- Maximum mean fluorescence intensity (human CD19 on Raji cells): 35200
- EC50 [1]: 26.2 nM
- Maximum mean fluorescence intensity [1]: 19700
- EC50 [2]: 0.6 nM
- Maximum mean fluorescence intensity [2]: 51600
- Proportion of chimeric antibody positive cells to B cells (%) at 1 nM [3]: 2%
- Proportion of chimeric antibody positive cells to B cells (%) at 10 nM [3]: 8%
- Proportion of chimeric antibody positive cells to B cells (%) at 100 nM [3]: 21%

B4: F4.41.1 (antibody, human IgG1, V domains shown)
VH: QVQLQQSGAELVRPGTSVKVSCKASGYAFTNYLIEWVKQRPGQGLEWIGVINPGSGDTLYNEKFKGKATLTADKSSTTAYMQLSGLTSDVSAIYFCARSPPITTIVADYFDYWGQGTTLTVSS
VL: DIQMTQTTSSLSASLGDRVTISCRASQDISNYLNWYQQKPDGTVKLLIYYTSRLHSGVPSRFSGSGSGADYSLTISNLEQEDIATYFCQQGKTLPYTFGGGTKLEIK
notes: as for B1
- EC50 (human CD19 on Raji cells): 1.02 nM
- Maximum mean fluorescence intensity (human CD19 on Raji cells): 23400
- Maximum mean fluorescence intensity [1]: 545
- EC50 [2]: 1.49 nM
- Maximum mean fluorescence intensity [2]: 48600
- Proportion of chimeric antibody positive cells to B cells (%) at 1 nM [3]: 1%
- Proportion of chimeric antibody positive cells to B cells (%) at 10 nM [3]: 2%
- Proportion of chimeric antibody positive cells to B cells (%) at 100 nM [3]: 2%

B5: F4.37.6 (antibody, human IgG1, V domains shown)
VH: QVQLQQSGAELARPGASVKLSCKASGYTFTSFWMQWLKQRPGQGLEWIGTIYPGDGDTRYTQKFKGKATLTADKSSNTAYMQLSSLASEDSAVYYCARGALSNYGGFAYWGQGTLVTVSA
VL: NIVLTQSPASLAVSLGQRATISCRASESVDSYGHSFMHWYQQKPGQPPKLLIYLASNLESGVPARFSGSGSRTDFTLTIDPVEADDAATYYCQQNNEDPWTFGGGTKLEIK
notes: as for B1
- EC50 (human CD19 on Raji cells): 0.51 nM
- Maximum mean fluorescence intensity (human CD19 on Raji cells): 24600
- Maximum mean fluorescence intensity [1]: 58
- EC50 [2]: ~0.035 nM
- Maximum mean fluorescence intensity [2]: 8490
- Proportion of chimeric antibody positive cells to B cells (%) at 1 nM [3]: 2%
- Proportion of chimeric antibody positive cells to B cells (%) at 10 nM [3]: 2%
- Proportion of chimeric antibody positive cells to B cells (%) at 100 nM [3]: 6%
